# Biological target: death receptor 3 (DR3) on human PBMCs / T cells (human) (UniProt Q93038)
# Assay: cell-based or functional assay
# Chain of death receptor 3 (DR3) on human PBMCs / T cells (human) (Q93038 25-417 limits assumed): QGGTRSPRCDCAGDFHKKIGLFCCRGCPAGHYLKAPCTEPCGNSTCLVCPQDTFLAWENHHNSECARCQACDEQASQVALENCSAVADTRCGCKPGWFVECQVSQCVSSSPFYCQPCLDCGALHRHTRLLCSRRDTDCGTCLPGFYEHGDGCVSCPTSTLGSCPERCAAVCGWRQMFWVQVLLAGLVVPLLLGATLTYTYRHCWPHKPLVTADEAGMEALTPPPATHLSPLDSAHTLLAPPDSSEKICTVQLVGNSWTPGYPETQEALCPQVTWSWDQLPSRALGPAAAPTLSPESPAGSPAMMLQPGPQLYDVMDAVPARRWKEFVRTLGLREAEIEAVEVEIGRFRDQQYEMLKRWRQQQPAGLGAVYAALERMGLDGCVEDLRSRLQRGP
substance,measurement,value
recombinant soluble human Flag-TL1A(EC) (ligand),"IL-13 production by T cells with anti-CD3/anti-CD28, 1 ug/mL TL1A-flag (FIG. 4)",1300 pg/mL
same,"IL-13 production by T cells with anti-CD3/anti-CD28, 1 ug/mL TL1A-flag (FIG. 8)",1850 pg/mL
same,"p65 phosphorylation-positive cells (%) in PBMCs, 40 nM TL1A-flag (FIG. 2B)",55%
same,"p65 phosphorylation-positive cells (%) in PBMCs, 40 nM TL1A-flag alone (FIG. 2A)",45%
same,"p65 phosphorylation-positive cells (%) in PBMCs, TL1A alone (FIG. 3)",55%
same,"p65 phosphorylation-positive cells (%) in PBMCs, TL1A alone (FIG. 5)",69.5%
same,"p65 phosphorylation-positive cells (%) in PBMCs, TL1A alone (FIG. 6)",45%
same,"p65 phosphorylation-positive cells (%) in PBMCs, TL1A alone (FIG. 7)",55%

# — patent publication US20170190781A1
